According to PMC8318587, “Structure-guided microbial targeting of antistaphylococcal prodrugs” (eLife, 2021):
≈ marks a conversion by molar mass, not a printed value. Like-named read-outs stand apart in the source and are kept apart here.

How the values were obtained:
S. aureus Newman [1] = test: Minimum inhibitory concentration (MIC) in liquid LB media; assay type: cell-based; conditions: Staphylococcus aureus
Experimental: (§1) Antibiotic resistance frequency was determined on LB agar plates containing 4× and 10×, the minimum inhibitory concentrations of several antibiotics. MICs were determined for S. aureus Newman in liquid LB media. […] Briefly, S. aureus Newman was grown in LB media to late log-phase and centrifuged at 4000 × g for 15 min before resuspension at an OD600 nm of 30 (~1E11 CFU/mL) in LB media. One hundred microliter aliquots of concentrated S. aureus was plated in duplicate on selective and non-selective plates and incubated at 37°C. After 24 hr, mutation rates were calculated by counting the number of colonies present and dividing by the total number of colonies plated. Experiments were performed in triplicate.

S. aureus Newman [2] = assay type: cell-based, Staphylococcus aureus; conditions: for Mutational frequency at 4× MIC / Mutational frequency at 10× MIC: LB agar, 24 hr, mean ± SD
Experimental: as §1

[3] = substrate: CC(C)OCC(=O)OCOc1ccc2c(c1)Oc1cc(OCOC(=O)COC(C)C)ccc1C21OC(=O)c2ccccc21; test: Esterase substrate specificity, fluorogenic SAR library kinetics; assay type: biochemical, Staphylococcus aureus; conditions: other: SaFrmB 15 µg/mL, pH 7.5, 37°C
Experimental: (§2) Kinetic measurements were performed according to [White et al., 2018] with minor variation. Lyophilized human and mouse sera were resuspended according to manufacturer instructions in highly pure, filtered water at protein concentrations of 85 mg/mL and 70 mg/mL, respectively. One milliliter of resuspended serum was added to a 24 mL mastermix for a final concentration of 31.25 mM Tris pH 7.5, 312.5 mM NaCl, 1.25 mM MgCl2, 12.5% glycerol, and 3.4 mg/mL or 2.8 mg/mL protein for human and mouse serum, respectively. For purified proteins, 5 mL of a 75 µg/mL stock was added to yield a 20 mL mastermix containing 31.25 mM Tris pH 7.5, 312.5 mM NaCl, 1.25 mM MgCl2, 12.5% glycerol, and 18.75 µg/mL protein. Mastermix was stored on ice when not in use. Twenty microliters of mastermix was transferred to a black, 96-well half area microplate (Corning, CLS3993) and prewarmed at 37°C. Fluorogenic substrates were prepared as 10 mM stock solutions in 100% DMSO and were diluted in water to a starting concentration of 500 µM. Enzyme catalyzed substrate hydrolysis was initiated by addition of 5 µL substrate dilution in technical duplicate to the prewarmed serum or protein solution. Final assay concentrations were as follows: 25 mM Tris pH 7.5, 250 mM NaCl, 1 mM MgCl2, 10% glycerol, and protein at a concentration of 2.72 mg/mL (human serum), 2.24 mg/mL (mouse serum), or 15 µg/mL (FrmB, GloB). The resulting change in fluorescence (λex = 485 nm, λem = 520 nm) was followed for 15 min at 37°C, collecting data every 30 s on a FLUOstar Omega microplate reader (BMG Labtech). Fluorescence measurements were converted to molar concentrations using a fluorescein standard curve (2.5 nmol–0.6 pmol). The initial rates of reaction were measured three independent times with two technical replicates per measurement and fit to a line using GraphPad Prism (GraphPad Software, La Jolla, CA). Initial rates of reaction were plotted versus the concentration of substrate and fit to a standard Michaelis–Menten equation (v = Vmax[S]/(Km + [S])), yielding estimates of Vmax and Km. Values for kcat and kcat/Km were calculated based on amount of enzyme added when purified enzymes were used.

[4] = substrate: COC(C)(C)C(=O)OCOc1ccc2c(c1)Oc1cc(OCOC(=O)C(C)(C)OC)ccc1C21OC(=O)c2ccccc21; test: as above; assay type: biochemical, Staphylococcus aureus; conditions: other: SaFrmB 15 µg/mL, pH 7.5, 37°C
Experimental: as §2

[5] = substrate: CCCOCC(=O)OCOc1ccc2c(c1)Oc1cc(OCOC(=O)COCCC)ccc1C21OC(=O)c2ccccc21; test: as above; assay type: biochemical, Staphylococcus aureus; conditions: other: SaFrmB 15 µg/mL, pH 7.5, 37°C
Experimental: as §2

[6] = substrate: CC(C)SCC(=O)OCOc1ccc2c(c1)Oc1cc(OCOC(=O)CSC(C)C)ccc1C21OC(=O)c2ccccc21; test: as above; assay type: biochemical, Staphylococcus aureus; conditions: other: SaFrmB 15 µg/mL, pH 7.5, 37°C
Experimental: as §2

[7] = substrate: CCSCCC(=O)OCOc1ccc2c(c1)Oc1cc(OCOC(=O)CCSCC)ccc1C21OC(=O)c2ccccc21; test: as above; assay type: biochemical, Staphylococcus aureus; conditions: other: SaFrmB 15 µg/mL, pH 7.5, 37°C
Experimental: as §2

[8] = substrate: COCCC(=O)OCOc1ccc2c(c1)Oc1cc(OCOC(=O)CCOC)ccc1C21OC(=O)c2ccccc21; test: as above; assay type: biochemical, Staphylococcus aureus; conditions: other: SaFrmB 15 µg/mL, pH 7.5, 37°C
Experimental: as §2

[9] = substrate: COCC(=O)OCOc1ccc2c(c1)Oc1cc(OCOC(=O)COC)ccc1C21OC(=O)c2ccccc21; test: as above; assay type: biochemical, Staphylococcus aureus; conditions: other: SaFrmB 15 µg/mL, pH 7.5, 37°C
Experimental: as §2

[10] = substrate: CSCCC(=O)OCOc1ccc2c(c1)Oc1cc(OCOC(=O)CCSC)ccc1C21OC(=O)c2ccccc21; test: as above; assay type: biochemical, Staphylococcus aureus; conditions: other: SaFrmB 15 µg/mL, pH 7.5, 37°C
Experimental: as §2

[11] = substrate: CCOC(C)C(=O)OCOc1ccc2c(c1)Oc1cc(OCOC(=O)C(C)OCC)ccc1C21OC(=O)c2ccccc21; test: as above; assay type: biochemical, Staphylococcus aureus; conditions: other: SaFrmB 15 µg/mL, pH 7.5, 37°C
Experimental: as §2

[12] = substrate: CCOCC(=O)OCOc1ccc2c(c1)Oc1cc(OCOC(=O)COCC)ccc1C21OC(=O)c2ccccc21; test: as above; assay type: biochemical, Staphylococcus aureus; conditions: other: SaFrmB 15 µg/mL, pH 7.5, 37°C
Experimental: as §2

[13] = substrate: COC(C)C(=O)OCOc1ccc2c(c1)Oc1cc(OCOC(=O)C(C)OC)ccc1C21OC(=O)c2ccccc21; test: as above; assay type: biochemical, Staphylococcus aureus; conditions: other: SaFrmB 15 µg/mL, pH 7.5, 37°C
Experimental: as §2

[14] = substrate: CCCC(=O)OCOc1ccc2c(c1)Oc1cc(OCOC(=O)CCC)ccc1C21OC(=O)c2ccccc21; test: as above; assay type: biochemical, Staphylococcus aureus; conditions: other: SaFrmB 15 µg/mL, pH 7.5, 37°C
Experimental: as §2

[15] = substrate: CCCCC(=O)OCOc1ccc2c(c1)Oc1cc(OCOC(=O)CCCC)ccc1C21OC(=O)c2ccccc21; test: as above; assay type: biochemical, Staphylococcus aureus; conditions: other: SaFrmB 15 µg/mL, pH 7.5, 37°C
Experimental: as §2

[16] = S. aureus Newman, liquid LB media, read-out: MIC

## CO[C@H]1/C=C/O[C@@]2(C)Oc3c(C)c(O)c4c(O)c(c(/C=N/N5CCN(C)CC5)c(O)c4c3C2=O)NC(=O)/C(C)=C\C=C\[C@H](C)[C@H](O)[C@@H](C)[C@@H](O)[C@@H](C)[C@H](OC(C)=O)[C@@H]1C [Rifampicin]
S. aureus Newman [1]; [16]
  MIC: 0.0075 µg/mL (≈ 0.00911 µM)
S. aureus Newman [2]
  Mutational frequency at 4× MIC: 8.96 ± 0.20 E-08
  Mutational frequency at 10× MIC: 7.64 ± 2.10 E-08
S. aureus Newman [2]; at 4 and 10 times the MIC
  Spontaneous resistance frequency: ~ 8E-8

## CC(=O)NC[C@H]1CN(c2ccc(N3CCOCC3)c(F)c2)C(=O)O1 [Linezolid]
S. aureus Newman [1]; [16]
  MIC: 1.67 µg/mL (≈ 4.95 µM)
S. aureus Newman [2]
  Mutational frequency at 4× MIC: <1 E-10
  Mutational frequency at 10× MIC: <1 E-10

## CCOc1ccc2ccccc2c1C(=O)N[C@@H]1C(=O)N2[C@@H]1SC(C)(C)[C@@H]2C(=O)O [Nafcillin]
S. aureus Newman [1]; [16]
  MIC: 0.5 µg/mL (≈ 1.21 µM)
S. aureus Newman [2]
  Mutational frequency at 4× MIC: <1 E-10
  Mutational frequency at 10× MIC: <1 E-10

## CN[C@H](CC(C)C)C(=O)N[C@H]1C(=O)N[C@@H](CC(N)=O)C(=O)N[C@H]2C(=O)N[C@H]3C(=O)N[C@H](C(=O)N[C@H](C(=O)O)c4cc(O)cc(O)c4-c4cc3ccc4O)[C@H](O)c3ccc(c(Cl)c3)Oc3cc2cc(c3O[C@@H]2O[C@H](CO)[C@@H](O)[C@H](O)[C@H]2O[C@H]2C[C@](C)(N)[C@H](O)[C@H](C)O2)Oc2ccc(cc2Cl)[C@H]1O [Vancomycin]
S. aureus Newman [1]; NEWMAN
  MIC: 2 µg/mL (≈ 1.38 µM)
S. aureus Newman [2]
  Mutational frequency at 4× MIC: <1 E-10
  Mutational frequency at 10× MIC: <1 E-10

## CCC[C@@H]1C[C@@H](C(=O)N[C@@H]([C@H]2O[C@H](SC)[C@H](O)[C@@H](O)[C@H]2O)[C@H](C)Cl)N(C)C1 [Clindamycin]
S. aureus Newman [1]; [16]
  MIC: 0.25 µg/mL (≈ 0.588 µM)
S. aureus Newman [2]
  Mutational frequency at 4× MIC: <1 E-10
  Mutational frequency at 10× MIC: <1 E-10

B1: SaFrmB (Staphylococcus aureus subsp. aureus str. Newman) (protein)
chain: MAYISLNYHSPTIGMHQNLTVILPEDQSFFNSDTTVKPLKTLMLLHGLSSDETTYMRYTSIERYANEHKLAVIMPNVDHSAYANMAYGHSYYDYILEVYDYVHQIFPLSKKRDDNFIAGHSMGGYGTIKFALTQGDKFAKAVPLSAVFEAQNLMDLEWNDFSKEAIIGNLSSVKGTEHDPYYLLDKAVAEDKQIPKLLIMCGKQDFLYQDNLDFIDYLSRINVPYQFEDGPGDHDYAYWDQAIKRAITWMVND
notes: made in house; host or cells: E. coli BL21 (DE3)
[3]
  Km: 9.17 µM
  Vmax: 0.597 pmol*min-1*μg protein-1
  kcat: 0.112 10-3 s-1
  kcat/Km: 12.3 M⁻¹ s⁻¹
[4]
  Km: 74.2 µM
  Vmax: 0.163 pmol*min-1*μg protein-1
  kcat: 0.0307 10-3 s-1
  kcat/Km: 0.414 M⁻¹ s⁻¹
[5]
  Km: 9.95 µM
  Vmax: 0.621 pmol*min-1*μg protein-1
  kcat: 0.117 10-3 s-1
  kcat/Km: 11.7 M⁻¹ s⁻¹
[6]
  Km: 36.3 µM
  Vmax: 0.629 pmol*min-1*μg protein-1
  kcat: 0.118 10-3 s-1
  kcat/Km: 3.27 M⁻¹ s⁻¹
[7]
  Km: 11.1 µM
  Vmax: 0.0295 pmol*min-1*μg protein-1
  kcat: 0.00556 10-3 s-1
  kcat/Km: 0.500 M⁻¹ s⁻¹
[8]
  Km: 30.0 µM
  Vmax: 0.183 pmol*min-1*μg protein-1
  kcat: 0.0345 10-3 s-1
  kcat/Km: 1.15 M⁻¹ s⁻¹
[9]
  Km: 30.3 µM
  Vmax: 5.98 pmol*min-1*μg protein-1
  kcat: 1.13 10-3 s-1
  kcat/Km: 37.2 M⁻¹ s⁻¹
[10]
  Km: 52.7 µM
  Vmax: 0.505 pmol*min-1*μg protein-1
  kcat: 0.0950 10-3 s-1
  kcat/Km: 1.80 M⁻¹ s⁻¹
[11]
  Km: 18.3 µM
  Vmax: 0.163 pmol*min-1*μg protein-1
  kcat: 0.0307 10-3 s-1
  kcat/Km: 1.68 M⁻¹ s⁻¹
[12]
  Km: 13.9 µM
  Vmax: 2.04 pmol*min-1*μg protein-1
  kcat: 0.385 10-3 s-1
  kcat/Km: 27.7 M⁻¹ s⁻¹
[13]
  Km: 107 µM
  Vmax: 2.57 pmol*min-1*μg protein-1
  kcat: 0.485 10-3 s-1
  kcat/Km: 4.52 M⁻¹ s⁻¹
[14]
  Km: 30.4 µM
  Vmax: 0.149 pmol*min-1*μg protein-1
  kcat: 0.0280 10-3 s-1
  kcat/Km: 0.921 M⁻¹ s⁻¹
[15]
  Km: 26.5 µM
  Vmax: 0.0637 pmol*min-1*μg protein-1
  kcat: 0.0120 10-3 s-1
  kcat/Km: 0.452 M⁻¹ s⁻¹
